In the nanobody polyreactivity screen of Harvey et al. (2022):

Experiment: yeast display, Sf9 membrane polyspecificity reagent, FACS + sequencing; frameworks hold sequencing errors
How it was run: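 Galactose-induced (36–48 hours) yeast carrying a synthetic nanobody display library were exposed to 10% biotinylated, detergent-solubilized Sf9 membrane reagent at 4 °C for 1 hour. FACS followed streptavidin microbead enrichment, using low and high (top ~1%) gates for expression (anti-HA) and reagent binding (streptavidin). Colony PCR, MiSeq 2 × 250 sequencing and CDR-length filtering followed. Labels for polyreactivity reflect the gate of origin.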

Sequence	polyreactivity (PSR sort gate)
QVQLVESGGGLVQAGGSLRLSCAASGRTIRYNAMGWYRQAPGKERELVAAITGSGGSTYYADSVKGRFTISRDNAKNTVYLQMNSLKPEDTAVYYCNAVGIWFPIRLIVPYDYWGQGTQVTVSS	low polyreactivity
QVQLVESGGGLVQAGGSLRLSCAASGRIFYSYGMGWYRQAPGKERELVATISIGGSTNYADSVKGRFTSSRDNAKNTVYLQMNSLKPEDTAVYYCNARAWFSYTSRRYTYWQEGYWGQGTQVTVSS	high polyreactivity
QVQLEESGGGLVQEGGSLRLSCADSGFTLWLNAMGWYRQAPGKERELVAAITTSDDGTYYADSVKGRFTISRDNAKNSVYLQMNSMKPEDTAVYYCAADYYSVLYDYWVQGTQVTVSS	low polyreactivity
QVQLVESGGGLVQAGGSLRLSCAASGSIFVGNAMGWYRQAPAKERELVDTISWSGGSTYYADSVKGRFTISRDNAKNTVYVQMTSLKPEDTAVYYCAKTPYRRYRYGCYTYRTYDYWGHGTQVTVSS	low polyreactivity
QVQLVESGGGLVQAGGSLRLSCAASGSTFKYYTMGWYIQAPGKERELVAGITLSGTTTYYADSEKGRFTISRDNAKNTVYLQMNSLKPEDTAVYYCAADYYHDFNAYYYWGQGTQVTVSS	low polyreactivity
QVQHVESGGGLVQAGGSLRLSCAASGFIIQGNAMGWYRQAPGKERELVAAISSSVSTYYADSVKGRFTISRDNAKNTVYLQMNSLKPEDTAVYYCNAGFPLSLWLGDYWGQGTQVTVSS	low polyreactivity
QVQLVESGGGLVQAGGSLRLSCAASGRTFYYNTKGWYRQAPGKERELVASISGSGGRTYFADSVKGRFTISRDTAKNTVYLQMNSLKPEDTAVYYCASSRARRSRYILDYWGQGTQVTVSS	high polyreactivity
QVHLVESGGGLVQAGGSLRLSCAASGRIFIYYAMGWYRQAPGKERELVAAISWCGGRTYYADSVKGRFTISRDNAKNTVYLQMNSLKPEDTAVYYCAAGVYTGQHEYDYWGQGTQVTVSS	low polyreactivity
QVQLVESGGGLVQAGGSLRLSCAAAGRTVPRYTMGWYRQAPGKEMELVAAISRGGSTNYAYSVKGLFTISRDNAKNTVYLVMNSLKPEDTAVYYCNADYWYDWKSYDYWGEGTQVTVSS	high polyreactivity
QVQLLESGGGLVQAGGSLRLSCAASGSTFLANAMGWYRQAPGKERDLVAAISSSGGSTYYADSVKWRFTISRDNAKNTVYVQMNSLKPEDTAVYYCAAATASRYRLWGGYYYWGQGTQVTVSS	low polyreactivity
QVQLVESGGGLVQAGGSLRLSCAASGSTFQANTMGWYRQAPGKERELVAAISIRGANTYYADSVKGRFTISRDNAKNTVYLQMNSLKPEDTAVYYCATRVRKYSLRLDYWGQGTQVTVSS	high polyreactivity
QVQLEESGGGLVQAGGSLRLSCAASGFTFAYYAMGWYRQAPGKERELVAGISWRGGRTYYADSVKGRFTISRDNAKNTVYLQMNSLKPEDTAVYYCNARNSYRPGRGYDYGGQGTQVTVSS	high polyreactivity
QFQLVESGGGLVQAGGSLRLSCAASGIIFTTYVMGWYRQAPGKERELVAAISRGGRTYYADSVKGRFTSSRDNAKNTVYLQMNSLKPEDTAVYYCARVAYKGYGEDDYWGQGTQVTVSS	high polyreactivity
QVQHVVSVGGLVQAGGSLRLSCAASGSTFLLNTMGWYRQAPGKERELVAAISSITGDTYYADSVKGRFTISRDNAKNTVYLQMNSLKPEDTAVYYCAAYLSETRPYLYDYWGLGTQVTVSS	low polyreactivity
QVQLVESGGGLDQAGGSLRLSWAASGSIFTIYAMGWYRQAPGKERELVAAISRRGGSTYYADSVKGRFTISRDNSKNTVYLQMNSLKPEDTAVYYCNADVAPGIFYGYDCWGQGTQVTVSS	low polyreactivity
QVQLVESGGGLVQAGGSLRLSCAASGRIFRRYAMGWYRQAPGKERELVAAITRSGGSTYYADSVKGRFTISRDNAKNTVYLQMNSLKPEDTAVYYCNAPSSLGTDYDYWGQGTQVTVSS	high polyreactivity
QVQLVESGGGIVQAGGSLRLSCAASGSTFVNYTMGWYRQAPGKERELVATITWSGDSTYYADSVKGRFTISRDNAKNTVYLQMNSVKPEDTAVYYCAGAPLETYYYWGQGTQVTVSS	low polyreactivity
QVQLVESGGGLVQAGGSLRLSCAASGSIFTYYAMGWYRQAPGKERELVAAISWNGGTTYYADSVKGLFTISRDNAKNTVYLQMNSLKPEDTAVYYCNKDGSYRYDYWGQGTQVTVSS	low polyreactivity
QVQLVESGGGLVQAGGSLRLSCAASGSIFGAYAMGWYRQAPGKERELVAAINYGGATTYYADSVKGRFTISRDNAKNTVYLQMNSLKPEDTAVYYCAADYLYAYGDVAVVYGWYAYYYWGQGTQVTVSS	low polyreactivity
QVQLVESGGGLVQAGGSLRLSCAASGRIFSGNAMGWYRQAPGKERELVAAITWSGSSTFYADSVKGRFTISRDNAKNTVYLQMNSLKPEDTAVYYCAVDSSSPVRPHTDEDYWGQGTQVTVSS	low polyreactivity
QVQLVESGGGLVQEGGSLRLSCAASGSTFTPYAMGWYRQAPGKERELVAGITGNGGSTRYADSVKGRFTISRDNEKNTVYLQMKSLKTEDSAVYYCAARWTRQRYRTSYYAWGQGTQVTVSS	high polyreactivity
QVQLVESGGGLVQAGGSLRLRCAASGNTFGYYTMGWYRQAPAKESELVASIDSGGGTNYADSVKGRFTISRDNAKNTVYLQMNRLKPEDTAVYSCAAASPLYWVDDFESGWRYYYWGQGTQVTVSS	low polyreactivity

Sequence	polyreactivity (PSR sort gate)
QVQLVESGGGLVQAGGSLRLSCAASGSTFFHYAMGWYRQAPGKERELVAAISGSGGSTYYADSVKGRFTISRDNAKNTVYLQMNSLKPEDTAVYYCNARVWHYTSRTTFDYWGQGTQVTVSS	low polyreactivity
QLQLVESGGGLVQAGGSLRLSCAASGSTFSPYAMGWYRQAPGKERDLVAGITSSGGDTYYADSVKGRFTISRDNAKNTVYLQMNSLKPEDSAVYYCAADWWVLGQLWFDYWGQGTQVTVSS	low polyreactivity
QVQLVESGGGLVQEGGSLSLSCAASGLTFTGNAMAWYRQAPGKEREFVAAIRWSAGSTYYADSVKGRFTISRDNAKNTVYLQMNSLKPEDTAVYYCYAALNVSGHYPNDYCGQGTQVTVSS	low polyreactivity
QVQLVESGGGLVQAGGSLRLSCAASGLTFDYYVMGWYRQAPGKERELVATISWSGDITYYADSVKGRFTISRDNAKNTVYLQMNSLKPEDTAVYYCAADYLDSTYGYVYGWDDYWGQGTQVTVSS	low polyreactivity
QVQLVESGGGLVQAGGSLRLSCAASGITFDYYGMGWYIQAPGKERELVASITSGGSTNYADSVKGRFTISRDNPKNTVYLQMNSLKPEDTAVYYCNAEFWEVSPDPRDYDYWGQGTQVTVSS	low polyreactivity
QVQLVESGGGLVQAGGSLRLSCAASGRTFLYYAMGWYRQAPGKERELVAAISSGGRTNYADSVNGRFTISRDNAKNTVYLQMNSRKPEDTAVYYCAVRRGAFSTYPGYNYWGQGTQVTVSS	high polyreactivity
QVQLVESGGGLVQAGGSLRLSCAASGFTFEENAMGWYRQAPGKERELVAAINWSGGNTYYADSVKGRFTISRDNAKNTVYLQMNSLKPEDTAVYYCAAEYRSWSWRMDYWGQGTQVTVSS	high polyreactivity
QVKLVESGGGLVQAGGSLRLSCPASGSTFYYNAMGWYRQAPGKERELVARISRSGGSTYADSVKGRFTISRDNAKNTVYLQMNSLKPEDTAVYYCNADAYGTPEFTSYAVRYDYWGQGTQVTVSS	low polyreactivity
QVQLVESGGGLVQAGGSLRLSSAASGGIFFIYVMGWYRQAPGKERELVAAISWSGGDTYYADSVQGRFTISRDNAKNTVYVQMNSLKPEDTAVYYCAARYYYLGTRYGYWGQGTQVTVSS	low polyreactivity
QVQLVESGGGLVQAGGSLRLSCAASGSIFRPYAMGWYRQAPGKERELVAAITSGGRTNYADSVKGRFTISRDNAKNTVYLQMNSLKPEDTAVYYCAKTGSYAKIRPNNDYWGQGTQVTVSS	low polyreactivity
QDQLVESGGGLVQAGGSLSLSCAASGSIFETYDMGWYRQAPGKERELVAAISLSGGSTYYADSVKGRFTISRDNAKNTVYLQMYSLKPEDTAVYYCASDTYYVSYGYYYWGLGTQVTVSS	low polyreactivity
QVQLVESGGGLVQAGGSLRISCAPSGIIFTDYAMGWYRQAPGKERELVAAISSGGGSTYYADSVKGRFTISRDNAKNTVYLQMNSLKPEDTAVYYCAAEGYLISGAGDYLYDYYWGQGTQVTVSS	high polyreactivity
QVQLVESGGGLVQAGGSLRLSCAASGTIFAPNAMGWYRQAPGKERELVAAISRSGGRTYYADSVKGRFTISRDNAKNTVYLQMNSLKPEDTAVYYCAADYKHQRTYGSWGQGTQVTVSS	high polyreactivity
QVELVESGGGLVQAGGSLRLSCSASGSIFYKYAMGWYRQAPGKERELVAAIRVSGGSTYYADSVKGRFTISRDNAKNTVYLQMNSLKPEDTAVYYCAAESKFPWGYRYDYWGQGTQVTVSS	low polyreactivity
QVQLVESGGGLVQAGGSLRLSCAASGSTFTWYAMGWYRQAPGKERELVADISYGGGSTYYADSVKGRFTISRDNAKNTVYLQMNSLKPEDTAVYYCAADYRWYQRGNPMDYWGQGTQVNVSS	low polyreactivity
QVQLVESGGGLVQEGGSLRLSCDASAITIGRYAMGWYRQAPGKERELVAAISWSGGSTYFADSVKGRFTISRDNAKNTVYLHMNSLKPEDTAVYYCATRIRTVAYNYWGQGTQVTVSS	high polyreactivity
QVQLVESGGGLVQEGGSLRLICEASGFIFYNYAMGWYRQAPGKERELVAAISSSGGRTYYADSVKGRFTISRDNAKNTVYLQMNRLKREDTAVYYCNARVNYKGYDYWGQGTQVTVSS	high polyreactivity
QVQLVESGGCLVQAGGSLRLSCASSGRTFLVYAMGWYRQAPGKERELVAAITSGGSTYYADSVKGRFTISRDNAKNTVYLQMNSLKPEDTAVYYCAAKIRGYPRRRYDYWGQGTQVTVSS	high polyreactivity
QVQLVESGGGLVQAGGSLRLSCSASGSTITTYAMGWYRQAPGKERELVAAISTNGGRTCYADSVKGRFTISRDYAKNTVSLQMNSLKPEDTAVYYCAAEYGLYAPGYYYWGQGTQVTVSS	low polyreactivity
QVQLVESGGGLVQAGGSLRLSCAASGSTFTNNGMGWYRQAPGKERELVATISWDGDSTYYADSVKGRFTISRDNAKNTVYLQMISQKPEDTAVYYCAADEWGSDSALNFEYWGQGTQVTVSS	low polyreactivity
QVQLVESGGGLVQAGGSLRLSCAASGSIFRRNAMGWYRQAPGTERELVAAISLRGGSTYYADSVKGRFTISRDLAKNTVYLQMISLKTQDTAVYYCADDEFDDYDWYRGYDTTYDYWGQGTQVTGSS	low polyreactivity
